Target: human CEACAM5 (carcinoembryonic antigen, CEA) on cells (human) (UniProt P06731)
Assay: flow cytometry, MKN45 cells
Set-up: unit not given beside the values

human CEACAM5 (carcinoembryonic antigen, CEA) on cells (human), sequence (P06731 35-685 E398K limits assumed): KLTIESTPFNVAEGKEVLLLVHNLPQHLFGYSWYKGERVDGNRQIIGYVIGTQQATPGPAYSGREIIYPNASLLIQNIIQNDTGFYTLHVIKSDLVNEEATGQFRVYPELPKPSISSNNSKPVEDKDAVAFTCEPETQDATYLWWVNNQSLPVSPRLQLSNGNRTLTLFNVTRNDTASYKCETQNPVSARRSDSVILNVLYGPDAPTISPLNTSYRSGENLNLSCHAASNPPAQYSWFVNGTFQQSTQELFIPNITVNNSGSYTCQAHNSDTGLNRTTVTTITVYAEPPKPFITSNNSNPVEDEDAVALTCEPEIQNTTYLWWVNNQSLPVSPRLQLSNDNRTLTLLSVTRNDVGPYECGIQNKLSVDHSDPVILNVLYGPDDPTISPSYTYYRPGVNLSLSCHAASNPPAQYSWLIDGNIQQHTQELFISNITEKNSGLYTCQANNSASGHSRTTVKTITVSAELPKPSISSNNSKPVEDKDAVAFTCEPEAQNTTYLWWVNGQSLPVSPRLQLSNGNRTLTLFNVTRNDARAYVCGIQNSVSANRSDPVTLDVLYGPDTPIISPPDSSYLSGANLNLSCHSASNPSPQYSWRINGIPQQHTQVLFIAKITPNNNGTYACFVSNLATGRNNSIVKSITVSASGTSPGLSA

AUC: 3140
B1: P1AE3125 (antibody, IgG1, V domains shown)
VH: QVQLVQSGAEVKKPGASVKVSCKASGFNIKDSYMHWVRQAPGQGLEWMGWIDPENGDTEYAPKFQGRVTMTTDTSISTAYMELSRLRSDDTAVYYCNEGTPTGPYYFDYWGQGTLVTVSS
VL: DIQMTQSPSSLSASVGDRVTITCRASSSVSYMHWYQQKPGKAPKLLIYSTSNLASGVPSRFSGSGSGTDFTLTISSLQPEDFATYYCQQRSSYPLTFGGGTKLEIK
